These results are taken from patent publication US20080274905A1 (TRUSTEES OF COLUMBIA UNIVERSITY IN THE CITY OF NEW YORK, published 2008).

Data set [1] concerns the molecule itself. The data set is described as follows: two-colour quantum dot labeling of Rdh54 complexes on DNA curtains, TIRFM colocalisation (self-association).
Data set [2] deals with the molecule itself. In words: cryo-electron microscopy of fluorescent Rad51 (self-association into rings). The source says:
The biochemically active form of Rad51 and related recombinases is an extended helical filament bound to DNA (P8, P33). Cyro-electron microscopy was used to determine whether the fluorescently tagged version of Rad51 formed structures consistent with the known forms of the wild-type protein. First, fluorescent Rad51 was mixed with double-stranded, linearized φX174 in the presence of ATP. The reaction mixes were then applied to a carbon-coated grid, flash frozen in liquid ethane, and visualized with cryo-EM (P9). […] In addition, the protein that was not bound to the DNA molecules was present as a ring-like structure, as previously reported (P16). Rad511 and several closely related proteins, are known to form ring-like structures under various reaction conditions and it is thought that these rings contain from 6-8 monomers of protein (P13-P15, P34, P35).

B1: Rdh54 (Rad homolog 54), yeast Snf2-related homologous recombination factor (enzyme, UniProt P38086 1-958, looked up)
chain: MAVISVKPRRREKILQEVKNSSVYQTVFDSGTTQMQIPKYENKPFKPPRRVGSNKYTQLKPTATAVTTAPISKAKVTVNLKRSISAGPTLNLAKKPNNLSSNENTRYFTIMYRKPTTKKHKTWSGDGYATLKASSDKLCFYNEAGKFLGSSMLPSDSDSLFETLFKAGSNEVQLDYELKENAEIRSAKEALSQNMGNPSPPTTSTTETVPSTKNDGGKYQMPLSQLFSLNTVKRFKSVTKQTNEHMTTVPKTSQNSKAKKYYPVFDVNKIDNPIVMNKNAAAEVDVIVDPLLGKFLRPHQREGVKFMYDCLMGLARPTIENPDIDCTTKSLVLENDSDISGCLLADDMGLGKTLMSITLIWTLIRQTPFASKVSCSQSGIPLTGLCKKILVVCPVTLIGNWKREFGKWLNLSRIGVLTLSSRNSPDMDKMAVRNFLKVQRTYQVLIIGYEKLLSVSEELEKNKHLIDMLVCDEGHRLKNGASKILNTLKSLDIRRKLLLTGTPIQNDLNEFFTIIDFINPGILGSFASFKRRFIIPITRARDTANRYNEELLEKGEERSKEMIEITKRFILRRTNAILEKYLPPKTDIILFCKPYSQQILAFKDILQGARLDFGQLTFSSSLGLITLLKKVCNSPGLVGSDPYYKSHIKDTQSQDSYSRSLNSGKLKVLMTLLEGIRKGTKEKVVVVSNYTQTLDIIENLMNMAGMSHCRLDGSIPAKQRDSIVTSFNRNPAIFGFLLSAKSGGVGLNLVGASRLILFDNDWNPSVDLQAMSRIHRDGQKKPCFIYRLVTTGCIDEKILQRQLMKNSLSQKFLGDSEMRNKESSNDDLFNKEDLKDLFSVHTDTKSNTHDLICSCDGLGEEIEYPETNQQQNTVELRKRSTTTWTSALDLQKKMNEAATNDDAKKSQYIRQCLVHYKHIDPARQDELFDEVITDSFTELKDSITFAFVKPGEICLREQ
notes: also called Tid1
With B1, in data set [1], the binding result was “binds”.

B2: fluorescently tagged human Rad51 (A11C Rad51 labeled with Alexa Fluor 555-maleimide) (enzyme, UniProt Q06609 1-339, looked up)
chain: MAMQMQLEANCDTSVEEESFGPQPISRLEQSGINANDVKKLEEAGFHTVEAVAYAPKKELINIKGISEAKADKILAEAAKLVPMGFTTATEFHQRRSEIIQITTGSKELDKLLQGGIETGSITEMFGEFRTGKTQICHTLAVTCQLPIDRGGGEGKAMYIDTEGTFRPERLLAVAERYGLSGSDVLDNVAYARAFNTDHQTQLLYQASAMMVESRYALLIVDSATALYRTDYSGRGELSARQMHLARFLRMLLRLADEFGVAVVITNQVVAQVDGAAMFAADPKKPIGGNIIAHASTTRLYLRKGRGETRISKIYDSPSLPEAEAMFAINADGVGDAKD
modifications: Alexa Fluor 555-maleimide on Cys 11 (A11C)
notes: also called fluorescent Rad51; Alexa Fluor 555-Rad51
Turning to B2, in data set [2], the binding result is on record as “binds”.
